Measurements taken from article PMC4778132, “CC chemokine receptor 10 cell surface presentation in melanocytes is regulated by the novel interaction partner S100A10” (Scientific Reports, 2016).
One block for each binder: values may come before it.

How the values were obtained:
[1] = molecular target: T1, recombinant HIS-tagged human S100A10 (wild type) (human, UniProt P60903 1-97); assay: SPR; Biacore 3000; GST-CCR10 CT amine-coupled on a CM5 chip; six concentrations of HIS-tagged S100A10 derivative injected; HBS-P buffer (10 mM Hepes pH 7.4, 150 mM NaCl, 0.005% Tween-20), 25 °C; binding to GST alone subtracted; single binding site model, KD by the Scatchard equation; details: both partners purified
T1 construct: human S100A10, cDNA in pET28a(+); also called HIS-S100A10; S100A10 wt; source: E. coli BL21(DE3)pLysS, purified (Ni-NTA); not shown: poly-histidine (HIS), N-terminal, kept
T1 sequence (P60903 whole entry): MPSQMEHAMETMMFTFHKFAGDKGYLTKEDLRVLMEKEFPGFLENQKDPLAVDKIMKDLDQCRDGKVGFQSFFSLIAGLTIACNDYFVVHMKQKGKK

[2] = molecular target: T1, recombinant HIS-tagged human S100A10 …; assay: pull-down; GST fusion proteins (50 μg) on glutathione sepharose beads incubated with purified protein (10 μg), 2 hours at 4 °C, IP buffer (20 mM Tris-HCl pH 7.5, 25 mM NaCl, 10 mM NaF, 1 mM EDTA, 0.1% Triton-X 100); immunoblot; details: both partners purified

- Kd [1]: ~1000 nM
B1: GST-CCR10 CT (C-terminal cytoplasmic tail of human CCR10 fused to GST) (domain or fragment, UniProt P46092 314-362, looked up)
chain: GLRFRQDLRRLLRGGSCPSGPQPRRGCPRRPRLSSCSAPTETHSLSWDN
notes: C-terminal cytosolic tail of human CCR10, amino acid residues 314-362 (methods); the results print 314-369; Cloned in pGex-4T-1; Results print 314-369, methods 314-362; also called CCR10 CT_(314–369); pGex-CCR10CT_(314–362)

- binding result [2]: binds
B2: GST-CCR10 CT truncation mutant T1 (domain or fragment, human, UniProt P46092 314-339, looked up)
chain: GLRFRQDLRRLLRGGSCPSGPQPRRG
notes: C-terminal tail of human CCR10, amino acid residues 314-339 (stop codon inserted into pGex-CCR10CT); also called T1 mutant
